The source of these data is article PMC10397247.

One test addresses T1, 4H55-AA.
T1 chain: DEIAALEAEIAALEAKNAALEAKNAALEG
Nature of the test: two-hybrid library CCmax.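 Further: natural log of median RNA to DNA barcode read ratio; higher means stronger binding.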 The following applies: mean of both orientations.

The target in a further test is T2, 4H662-AA.
T2 chain: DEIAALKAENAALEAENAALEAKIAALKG
Nature of the test: two-hybrid library CCmax.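 Further: natural log of median RNA to DNA barcode read ratio; higher means stronger binding.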 The following applies: mean of both orientations.

Another test has as its target T3, 4H4033-AA.
T3 chain: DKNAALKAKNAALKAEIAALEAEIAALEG
Briefly: two-hybrid library CCmax.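 Further: natural log of median RNA to DNA barcode read ratio; higher means stronger binding.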 The following applies: mean of both orientations.

The target in a further test is T4, 4H481-AA.
T4 chain: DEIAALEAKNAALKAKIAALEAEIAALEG
Briefly: two-hybrid library CCmax.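 Further: natural log of median RNA to DNA barcode read ratio; higher means stronger binding.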 The following applies: mean of both orientations.

Another test has as its target T5, 4H3922-AA.
T5 chain: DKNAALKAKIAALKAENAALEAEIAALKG
Nature of the test: two-hybrid library CCmax.

The next test deals with T6, 4H967-bH.
T6 chain: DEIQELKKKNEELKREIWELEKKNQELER
Nature of the test: two-hybrid library CCNG1.

A further test addresses T7, 4H454-bH.
T7 chain: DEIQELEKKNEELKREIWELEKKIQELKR
Nature of the test: two-hybrid library CCNG1.

A further test addresses T8, 4H883-bH.
T8 chain: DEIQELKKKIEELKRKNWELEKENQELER
Briefly: two-hybrid library CCNG1.

For another test, the target named is T9, 4H797-bH.
T9 chain: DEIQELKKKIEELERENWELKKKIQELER
Briefly: two-hybrid library CCNG1.

A further test has as its target T10, 4H717-bH.
T10 chain: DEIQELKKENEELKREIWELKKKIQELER
Nature of the test: two-hybrid library CCNG1.

The target in another test is T11, 4H953-bH.
T11 chain: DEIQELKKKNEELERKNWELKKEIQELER
Nature of the test: two-hybrid library CCNG1.

Another test addresses T12, 4H568-bH.
T12 chain: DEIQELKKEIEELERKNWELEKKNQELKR
Nature of the test: two-hybrid library CCNG1.

The target in a further test is T13, 4H687-bH.
T13 chain: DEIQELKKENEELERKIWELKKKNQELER
Briefly: two-hybrid library CCNG1.

For the next test, the target named is T14, 4H607-bH.
T14 chain: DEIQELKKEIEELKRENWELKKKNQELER
Nature of the test: two-hybrid library CCNG1.

Another test concerns the target T15, 4H754-bH.
T15 chain: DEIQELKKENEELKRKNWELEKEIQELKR
Briefly: two-hybrid library CCNG1.

In another test the target is T16, 4H918-bH.
T16 chain: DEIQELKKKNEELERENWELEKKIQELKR
Nature of the test: two-hybrid library CCNG1.

Another test has as its target T17, 4H72-bH.
T17 chain: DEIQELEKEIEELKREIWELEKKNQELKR
Nature of the test: two-hybrid library CCNG1.

The next test has as its target T18, 4H908-bH.
T18 chain: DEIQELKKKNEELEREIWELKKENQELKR
Nature of the test: two-hybrid library CCNG1.

In another test the target is GCN2_T. Briefly: two-hybrid library CCmax. The following applies: mean of both orientations.
A further test addresses T19, 4H_BCR.
T19 chain: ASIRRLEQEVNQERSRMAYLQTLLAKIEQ
Briefly: two-hybrid library CCmax. The following applies: mean of both orientations.

Another test addresses T20, 4H895-AA.
T20 chain: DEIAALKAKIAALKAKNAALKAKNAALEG
Nature of the test: two-hybrid library CCmax.

The target of another test is 4H_GCN4. Briefly: two-hybrid library CCmax.
4H_GCN4, sequence (chain, as listed by the source): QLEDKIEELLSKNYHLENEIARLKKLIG
Another test concerns the target T21, 4H_APH.
T21 chain: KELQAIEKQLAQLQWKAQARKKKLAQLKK
Nature of the test: two-hybrid library CCmax. The following applies: mean of both orientations.

The target of the next test is T22, 4H730-bH.
T22 chain: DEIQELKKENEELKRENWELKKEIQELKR
Nature of the test: two-hybrid library CCNG1.

For another test, the target named is T23, 4H932-bH.
T23 chain: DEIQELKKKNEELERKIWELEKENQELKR
Nature of the test: two-hybrid library CCNG1.

The target in a further test is T24, 4H796-bH.
T24 chain: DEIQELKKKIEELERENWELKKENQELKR
Briefly: two-hybrid library CCNG1.

Another test addresses T25, 4H949-bH.
T25 chain: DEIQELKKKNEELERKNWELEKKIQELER
Nature of the test: two-hybrid library CCNG1.

The target of another test is T26, 4H730-bN.
T26 chain: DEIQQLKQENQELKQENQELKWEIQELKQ
Briefly: two-hybrid library CCNG1.

The target of the next test is T27, 4H932-bN.
T27 chain: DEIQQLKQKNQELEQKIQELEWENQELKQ
Briefly: two-hybrid library CCNG1.

In another test the target is T28, 4H796-bN.
T28 chain: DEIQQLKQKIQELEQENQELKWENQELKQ
Briefly: two-hybrid library CCNG1.

The target of a further test is T29, 4H949-bN.
T29 chain: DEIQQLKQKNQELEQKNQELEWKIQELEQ
Nature of the test: two-hybrid library CCNG1.

With DKNAALKAKIAALKAENAALEAEIAALKG [4H3922-AA], the interaction score with 4H55-AA is -1.32; with 4H662-AA, -1.16; in the test with 4H4033-AA it was -0.495; in the test with 4H481-AA it was 1.69; with 4H3922-AA, -0.436.

On to DEIQELEKKNEELKREIWELEKKIQELKR [4H454-bH], for which the interaction score in the test with 4H967-bH was 0.69; in the test with 4H454-bH, 1.6; with 4H883-bH, -1.26; in the test with 4H797-bH, -0.829; with 4H717-bH, 0.664; with 4H953-bH, 1.26. Moreover, the interaction score with 4H568-bH is 0.197; with 4H687-bH it was 1.81; with 4H607-bH it was -1.61; in the test with 4H754-bH, 0.236; with 4H918-bH it was -1.05; with 4H72-bH, 0.203. The interaction score with 4H908-bH was -0.536.

In the case of DEIAALKAKIAALKAKNAALKAKNAALEG [4H895-AA], the interaction score with GCN2_T is -1.25; in the test with 4H_BCR, -2.06; with 4H895-AA, -1.19; with 4H_GCN4, -1.86; with 4H_APH, -1.22.

Consider DEIQELKKENEELKRENWELKKEIQELKR [4H730-bH], for which the interaction score was 1.5 with 4H730-bH, -1.05 in the test with 4H932-bH, -0.301 with 4H796-bH and 0.0896 with 4H949-bH.

Turning to DEIQQLKQENQELKQENQELKWEIQELKQ [4H730-bN], the interaction score was 1.55 with 4H730-bN, -0.353 with 4H932-bN, -1.29 with 4H796-bN and -0.718 in the test with 4H949-bN.
